What all share (assay): cell-based or functional assay
Test [1] concerns the target IL2Rβ and common γ chain on 32Dβ cells.
For test [2] the target is unchanged. This is another data set of the same source.
A further test concerns the target IL2Rαβγ on CTLL2 cells.
Test [3] concerns the target IL2Rβ and common γ chain on 32Dβ cells. This is another data set of the same source.
The target in the next test is IL-21R on B9 cells.
Test [4] deals with TGFβ1 (R&D systems) (UniProt P01137).
Test [5] shares this target. This is another data set of the same source.

Where two headings read alike, the source gives them in different places.

Chain of TGFβ1 (R&D systems) (P01137 279-390 limits assumed): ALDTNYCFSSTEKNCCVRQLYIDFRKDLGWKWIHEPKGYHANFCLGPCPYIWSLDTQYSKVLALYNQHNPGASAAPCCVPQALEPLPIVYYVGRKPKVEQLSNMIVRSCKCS
Chain of Human recombinant TGFβRII/Fc (P37173 24-159): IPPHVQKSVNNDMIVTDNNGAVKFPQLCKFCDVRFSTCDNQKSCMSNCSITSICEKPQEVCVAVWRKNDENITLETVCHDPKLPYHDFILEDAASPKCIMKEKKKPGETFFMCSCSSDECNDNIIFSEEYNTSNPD

With “recombinant IL-15 (from UniProt P40933 49-162) (ligand)”, the EC50 of 32Dβ cell proliferation (WST1) was 0.0166 nM in test [1], 0.0106 nM in test [2] and 0.0016 nM in test [3]. In addition, in the test with IL2Rαβγ on CTLL2 cells, the EC50 of CTLL2 cell proliferation (PrestoBlue) was 0.00495 nM. In addition, the EC50 of CTLL2 cell proliferation (WST1) with IL2Rαβγ on CTLL2 cells was 0.00622 nM.

“recombinant IL-21 (from UniProt Q9HBE4 32-162) (ligand)” displayed an EC50 of B9 cell proliferation (WST1) in the test with IL-21R on B9 cells of 72.5 nM.

Turning to “Human recombinant TGFβRII/Fc (from UniProt P37173 24-159) (Fc fusion)”, the IC50, TGFβ1 activity in HEK-Blue TGFβ reporter cells was found to be 0.559 nM in the test with TGFβ1 (R&D systems) [4] and 0.461 nM in the test with TGFβ1 (R&D systems) [5].

With “recombinant IL-2 (from UniProt P60568 21-153) (ligand)”, in the test with IL2Rαβγ on CTLL2 cells, the EC50 of CTLL-2 cell proliferation (WST1) turned out to be 0.548 nM. The same substance showed an EC50 of 32Dβ cell proliferation (WST1) in test [3] of 0.14 nM.

The values are drawn from patent publication US11672826.
